From patent US20220242973A1 (Molecular Partners, published 2022) come the findings set out here.

Numbering of substitutions follows the chain as printed. Where two headings read alike, the source gives them in different places.

For experiment [1], the target named is T1, Histidine-tagged cynomolgus FAP (cynomolgus monkey (Macaca fascicularis), UniProt Q12884 30-760 (human entry)).
T1 construct: the tie between the two is by these matching words only; also called cFAP; cyno FAP
T1 sequence: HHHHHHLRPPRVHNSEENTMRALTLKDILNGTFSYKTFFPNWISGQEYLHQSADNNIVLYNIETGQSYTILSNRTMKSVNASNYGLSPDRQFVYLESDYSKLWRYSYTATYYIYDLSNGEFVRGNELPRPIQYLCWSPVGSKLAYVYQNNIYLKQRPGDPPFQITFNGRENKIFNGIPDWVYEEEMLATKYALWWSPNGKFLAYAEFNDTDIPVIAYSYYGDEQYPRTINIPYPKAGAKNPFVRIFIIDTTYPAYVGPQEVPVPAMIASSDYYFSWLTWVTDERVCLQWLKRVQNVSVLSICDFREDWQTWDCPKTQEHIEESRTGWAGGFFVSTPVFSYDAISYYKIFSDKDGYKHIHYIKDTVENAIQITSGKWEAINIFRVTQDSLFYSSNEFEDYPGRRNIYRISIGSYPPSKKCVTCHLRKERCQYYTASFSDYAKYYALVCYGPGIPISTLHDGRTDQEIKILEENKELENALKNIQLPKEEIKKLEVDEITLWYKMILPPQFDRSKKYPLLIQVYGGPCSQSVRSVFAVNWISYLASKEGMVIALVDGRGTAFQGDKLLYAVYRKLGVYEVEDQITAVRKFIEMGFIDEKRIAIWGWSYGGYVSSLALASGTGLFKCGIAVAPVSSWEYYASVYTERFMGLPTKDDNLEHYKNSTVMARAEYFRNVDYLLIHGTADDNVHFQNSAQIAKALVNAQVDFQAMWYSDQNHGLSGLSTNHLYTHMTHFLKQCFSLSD
Nature of the experiment: SPR (ProteOn), cynomolgus FAP immobilized on GLC chip. As to the method:
(§1) Briefly, cyno FAP was diluted in 10 mM Na-acetate pH5.3 buffer and covalently immobilized on a GLC chip (BioRad) to a level of around 2000 resonance units (RU). The interaction of ankyrin repeat protein and cFAP was then measured by injecting 200 μl running buffer (PBS, pH 7.4 containing 0.005% Tween 20®) containing serial dilutions of ankyrin repeat proteins covering a concentration range between 25 nM and 0.3 nM (on-rate measurement), followed by a running buffer flow for at least 25 minutes at a constant flow rate of 100 μl/min (off-rate measurement). The regeneration was performed using 15 μl of 10 mM Glycine pH 2 followed by 15 μl of 124 mM H₃PO₄. The signals (i.e. resonance unit (RU) values) of the interspots and a reference injection (i.e. injection of running buffer only) were subtracted from the RU traces obtained after injection of ankyrin repeat protein (double-referencing). Based on the SPR traces obtained from the on-rate and off-rate measurements, the on- and off-rate of the corresponding ankyrin repeat protein—FAP interaction was determined.
(§2) Dissociation constants (KD) were calculated from the estimated on- and off-rates using standard procedures known to the person skilled in the art. […] Table 4 provides the KD values on cFAP and hFAP of some of the selected ankyrin repeat proteins as examples.

The target in experiment [2] is T2, Recombinant human FAP (fibroblast activation protein) (human, UniProt Q12884 26-760).
T2 construct: Bought soluble recombinant protein; Chemically biotinylated for the HTRF screen; also called hFAP; biotinylated human FAP
T2 sequence (looked up): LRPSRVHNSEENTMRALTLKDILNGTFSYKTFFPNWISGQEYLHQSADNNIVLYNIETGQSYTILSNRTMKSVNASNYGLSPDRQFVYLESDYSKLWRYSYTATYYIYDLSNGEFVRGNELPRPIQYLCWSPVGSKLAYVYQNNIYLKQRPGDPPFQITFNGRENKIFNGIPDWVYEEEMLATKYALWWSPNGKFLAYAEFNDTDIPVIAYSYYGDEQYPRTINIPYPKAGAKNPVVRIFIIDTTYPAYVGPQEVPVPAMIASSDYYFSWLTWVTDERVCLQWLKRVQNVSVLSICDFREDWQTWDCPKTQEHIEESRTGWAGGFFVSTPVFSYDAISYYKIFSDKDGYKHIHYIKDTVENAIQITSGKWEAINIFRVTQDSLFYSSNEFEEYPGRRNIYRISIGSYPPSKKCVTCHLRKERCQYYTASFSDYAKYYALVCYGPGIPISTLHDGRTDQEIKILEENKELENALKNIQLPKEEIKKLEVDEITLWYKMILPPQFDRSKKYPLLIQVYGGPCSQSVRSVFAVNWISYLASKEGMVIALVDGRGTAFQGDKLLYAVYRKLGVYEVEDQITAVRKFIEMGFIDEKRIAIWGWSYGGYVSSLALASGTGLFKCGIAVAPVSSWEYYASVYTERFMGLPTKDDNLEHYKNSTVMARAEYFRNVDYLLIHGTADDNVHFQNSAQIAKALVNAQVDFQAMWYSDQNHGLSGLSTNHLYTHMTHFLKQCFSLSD
Nature of the experiment: SPR (ProteOn), human FAP immobilized on GLC chip. The method in brief: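 Human FAP amine-coupled (pH 5.3 acetate) to about 2000 RU. Ankyrin repeat proteins injected at 0.5–30 nM in PBS pH 7.4 with 0.005% Tween 20 at 100 μl/min, then ≥25 min dissociation, with double referencing. KD calculated from the fitted on- and off-rates.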

The target in experiment [3] is T2, Recombinant human FAP (fibroblast …). Kind of experiment: SPR (ProteOn), human FAP immobilized on GLC chip. As to the method:
as §1, with “Briefly, human” for “Briefly, cyno”, “Na-acetate pH 5.3” for “Na-acetate pH5.3”, “and hFAP” for “and cFAP”, “between 30” for “between 25”, “and 0.5” for “and 0.3”
as §2
This is another data set of the same source.

B1: DARPin® protein #38 (designed binder)
chain: MRGSHHHHHHGSDLGKKLLEAARAGQDDEVRELLKAGADVNAKDEVGRTPLHLAAQIGHLEIVEVLLKAGADVNAKNRWGVTPLHVAAWVGHLEIVEVLLKAGADVNAKDQQGATPLHLAAIRGHLEIVEVLLKAGADVNAQDKSGKTPADLAADAGHEDIAEVLQKLN
B1: the values for the Kd in experiment [1], in experiment [2] and in experiment [3] were 47 pM, 58 pM and 58 pM, respectively.

B2: DARPin® protein #34 (designed binder)
chain: MRGSHHHHHHGSDLGKKLLEAARAGQDDEVRELLKAGADVNAKDVLGWTPLHLAAFEGHLEIVEVLLKAGADVNAKDKKGWTPLQLAARTGHLEIVEVLLKAGADVNAKDHIGATPLHLAAWQGHPEIVEVLLKAGADVNAQDKSGKTPADLAADAGHEDIAEVLQKAA
For B2, the Kd was determined as 71 pM in experiment [1], 177 pM in experiment [2] and 177 pM in experiment [3].

B3: DARPin® protein #36 (designed binder)
chain: B2 chain with E32I, K35A, A168L, A169N
As for B3, the Kd in experiment [1] stood at 101 pM; in experiment [2], 118 pM; in experiment [3] it was 118 pM.

B4: DARPin® protein #39 (designed binder)
chain: MRGSHHHHHHGSDLGKKLLEAARAGQDDEVRELLKAGADVNAKDEWGKTPLHLAAIRGHLEIVEVLLKAGADVNAKDTHGITPLHLAAFVGHLEIVEVLLKAGADVNAKDYLGRTPLHIAAAKGHLEIVEVLLKAGADVNAQDKSGKTPADLAADAGHEDIVEVLQKLN
As to B4, the Kd is 155 pM in experiment [1], 220 pM in experiment [2] and 220 pM in experiment [3].

B5: DARPin® protein #35 (designed binder)
chain: MRGSHHHHHHGSDLGEKLLVAALYGQDDEVRELLKAGADVNAKDQWGLTPLHKAALQGHLEIVEVLLKAGADVNAKDERGHTPLHWAARFGHLEIVEVLLKAGADVNAQDQKGYTPADLAALWGHEDIAEVLQKAA
Turning to B5, the Kd turned out to be 150 pM in experiment [1], 210 pM in experiment [2] and 210 pM in experiment [3].

B6: DARPin® protein #37 (designed binder)
chain: B5 chain with E32I, K35A, A135L, A136N
Consider B6, for which the Kd in experiment [1] came out at 112 pM; in experiment [2] it was 140 pM; in experiment [3] it was 140 pM.

The Kd is a measure of binding affinity in units of concentration.
